Test results published in US20150030599A1 (SAMSUNG ELECTRONICS, published 2015).

Biological target: T1, EGFR-Fc (#344-ER, R&D Systems) (UniProt P00533 25-645)
T1 construct: Bought reagent; not shown: Fc part of the bought fusion protein is not described
Assay: SPR (Biacore T100), ME22S captured on human Fab binder, EGFR-Fc injected
Experimental: In addition, the affinities of the prepared anti-c-Met/anti-EGFR bispecific antibody to the two types of antigens, c-Met and EGFR, were each identified using Biacore T100 (GE). A human Fab binder (GE Healthcare) was immobilized at the surface of a CM5 chip (#BR-1005-30, GE) according to the manufacturer's specifications. […] 10 mM Glycine-HCl (pH 1.5) solution was injected thereto to regenerate the surface. In order to measure affinity, the data obtained from this experiment was fitted using BIAevaluation software (GE Healthcare, Biacore T100 evaluation software).

B1: anti-c-Met/anti-EGFR bispecific antibody ME22S (bispecific antibody)
heavy: EVQLVESGGGLVQPGGSLRLSCAASGFTFTDYYMSWVRQAPGKGLEWLGFIRNKANGYTTEYSASVKGRFTISRDNSKNTLYLQMNSLRAEDTAVYYCARDNWFAYWGQGTLVTVSSASTKGPSVFPLAPCSRSTSESTAALGCLVKDYFPEPVTVSWNSGALTSGVHTFPAVLQSSGLYSLSSVVTVPSSNFGTQTYTCNVDHKPSNTKVDKTVERKCCVECPPCPAPPVAGPSVFLFPPKPKDTLMISRTPEVTCVVVDVSHEDPEVQFNWYVDGVEVHNAKTKPREEQFNSTFRVVSVLTVVHQDWLNGKEYKCKVSNKGLPAPIEKTISKTKGQPREPQVYTLPPSREEMTKNQVSLTCLVKGFYPSDIAVEWESNGQPENNYKTTPPMLDSDGSFFLYSKLTVDKSRWQQGNVFSCSVMHEALHNHYTQKSLSLSPGKGGGGSGGGGSEVQLLESGGGLVQPGGSLRLSCAASGFTFSNYDMSWVRQAPGKCLEWVSGISHSSGSKYYADSVKGRFTISRDNSKNTLYLQMNSLRAEDTAVYYCAKDATPRPLKPFDYWGQGTLVTVSSGGGGSGGGGSGGGGSQSVLTQPPSASGTPGQRVTISCTGSSSNIGNNDVSWYQQLPGTAPKLLIYDDNKRPSGVPDRFSGSKSGTSASLAISGLRSEDEADYYCGSWDASLNAYVFGCGTKLTVLG
light: DIQMTQSPSSLSASVGDRVTITCKSSQSLLASGNQNNYLAWYQQKPGKAPKMLIIWASTRVSGVPSRFSGSGSGTDFTLTISSLQPEDFATYYCQQSYSRPYTFGQGTKVEIKRTVAAPSVFIFPPSDEQLKSGTASVVCLLNNFYPREAKVQWKVDNALQSGNSQESVTEQDSKDSTYSLSSTLTLSKADYEKHKVYACEVTHQGLSSPVTKSFNRGEC
notes: The modified anti-EGFR scFv is fused through (G4S)2 to the C-terminus of the Fc of L3-1Y-IgG2
  Kd: 0.49 nM
  koff: 9.2e-05 s⁻¹
  kon: 190000 M⁻¹ s⁻¹
